This is an account of results in patent US20180230232A1 (VIB VZW, published 2018).

For experiment [1], the target named is T1, mouse BACE1 (mouse, UniProt P56818 46-457, limits assumed). The experiment in a line: SPR (Biacore), pH 7.0. Background: Surface plasmon resonance follows binding to a sensor surface in real time, without labels.
Experiment [2] addresses recombinant BACE1 of the cell-free enzymatic assays (FRET assay, MBP-ELISA) (human, UniProt P56817 46-460, limits assumed). In words: cell-based or functional assay.
Experiment [3] concerns the target T2, human BACE1 ectodomain (human, UniProt P56817 22-457).
T2 construct: extracellular domain; also called the ectodomain of human BACE1
The experiment in a line: SPR (Biacore), pH 7.0.

Experiment [4] has as its target T1, mouse BACE1. The experiment in a line: SPR (Biacore), pH 4.5.
Experiment [5] concerns the target T2, human BACE1 ectodomain. The experiment in a line: SPR (Biacore), pH 4.5.
Experiment [6] concerns the target BACE1 of primary cultured mouse neurons (mouse, UniProt P56818 46-501). In words: cell-based or functional assay.

T2 sequence (P56817 22-457): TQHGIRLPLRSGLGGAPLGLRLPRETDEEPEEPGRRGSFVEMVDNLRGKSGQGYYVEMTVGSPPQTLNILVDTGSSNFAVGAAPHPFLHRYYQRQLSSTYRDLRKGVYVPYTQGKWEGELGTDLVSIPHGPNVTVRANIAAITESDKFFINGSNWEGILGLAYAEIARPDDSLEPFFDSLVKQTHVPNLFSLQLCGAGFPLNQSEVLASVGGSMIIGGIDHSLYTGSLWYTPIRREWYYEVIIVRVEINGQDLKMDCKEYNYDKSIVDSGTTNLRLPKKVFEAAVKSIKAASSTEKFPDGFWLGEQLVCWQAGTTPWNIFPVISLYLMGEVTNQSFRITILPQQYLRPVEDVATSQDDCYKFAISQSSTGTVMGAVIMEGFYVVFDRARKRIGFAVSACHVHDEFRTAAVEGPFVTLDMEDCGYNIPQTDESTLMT
Chain of recombinant BACE1 of the cell-free enzymatic assays (FRET assay, MBP-ELISA) (P56817 46-460 limits assumed): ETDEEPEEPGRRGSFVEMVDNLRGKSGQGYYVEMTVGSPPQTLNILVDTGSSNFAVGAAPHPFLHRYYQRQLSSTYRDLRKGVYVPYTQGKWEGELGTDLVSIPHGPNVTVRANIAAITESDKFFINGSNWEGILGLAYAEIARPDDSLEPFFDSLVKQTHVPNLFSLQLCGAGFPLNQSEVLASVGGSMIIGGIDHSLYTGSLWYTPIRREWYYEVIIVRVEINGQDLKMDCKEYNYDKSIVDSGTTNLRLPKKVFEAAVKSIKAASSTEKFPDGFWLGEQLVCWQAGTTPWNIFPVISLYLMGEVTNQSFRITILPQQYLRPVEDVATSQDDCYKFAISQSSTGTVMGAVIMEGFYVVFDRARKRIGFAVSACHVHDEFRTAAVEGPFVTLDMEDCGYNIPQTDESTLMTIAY
T1 sequence (P56818 46-457 limits assumed): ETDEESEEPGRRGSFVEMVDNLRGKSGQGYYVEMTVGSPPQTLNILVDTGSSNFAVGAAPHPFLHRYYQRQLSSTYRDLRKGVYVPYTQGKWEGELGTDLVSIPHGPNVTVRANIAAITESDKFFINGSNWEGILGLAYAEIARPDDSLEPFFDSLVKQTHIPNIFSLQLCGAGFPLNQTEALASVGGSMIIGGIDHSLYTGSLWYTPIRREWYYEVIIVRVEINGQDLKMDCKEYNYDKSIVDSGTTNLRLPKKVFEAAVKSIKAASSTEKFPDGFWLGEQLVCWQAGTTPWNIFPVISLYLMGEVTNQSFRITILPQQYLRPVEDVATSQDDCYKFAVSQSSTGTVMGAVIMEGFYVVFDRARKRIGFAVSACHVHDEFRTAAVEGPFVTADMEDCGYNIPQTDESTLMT
Chain of BACE1 of primary cultured mouse neurons (P56818 46-501): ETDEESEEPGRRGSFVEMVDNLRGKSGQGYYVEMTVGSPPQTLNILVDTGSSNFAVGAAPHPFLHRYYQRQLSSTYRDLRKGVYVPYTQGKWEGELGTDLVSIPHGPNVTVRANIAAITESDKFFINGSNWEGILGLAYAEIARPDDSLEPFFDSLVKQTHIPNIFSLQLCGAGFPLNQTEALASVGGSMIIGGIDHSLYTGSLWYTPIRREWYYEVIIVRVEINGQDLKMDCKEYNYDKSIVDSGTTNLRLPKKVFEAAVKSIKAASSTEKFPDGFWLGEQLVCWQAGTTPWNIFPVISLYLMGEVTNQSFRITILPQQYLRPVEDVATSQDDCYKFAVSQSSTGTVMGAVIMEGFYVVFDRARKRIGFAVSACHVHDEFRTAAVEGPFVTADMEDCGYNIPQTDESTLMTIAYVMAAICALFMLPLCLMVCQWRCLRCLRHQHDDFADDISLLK

B1: NANOBODY 4A2 (Nb_4A2) (VHH)
VHH: QVQLQESGGGLVQPGGSLRLSCAASGFTFETQYMTWVRQAPGKGPEYVSSINSGGTIKYYANSSVKGRFTISRDNAKNTLYLQMNNLRPEDTAIYYCQLGQWAGVGAASSRGQGTQVTVSS
notes: from the llama library; purified from pHEN6; not shown: C-terminal his6-tag (pHEN6)
With B1, the Kd in the experiment with mouse BACE1 [1] was determined as 35.2 nM; in the experiment with human BACE1 ectodomain [3], 48.2 nM; with mouse BACE1 [4] it was 8.61 nM; with human BACE1 ectodomain [5], 21.2 nM. Besides, the off-rate constant (koff) with mouse BACE1 [1] is 0.00581 s⁻¹; with human BACE1 ectodomain [3], 0.0231 s⁻¹; with mouse BACE1 [4] it was 0.00216 s⁻¹; with human BACE1 ectodomain [5], 0.00841 s⁻¹. Also, the kon in the experiment with mouse BACE1 [1] amounted to 165000 M⁻¹ s⁻¹; in the experiment with human BACE1 ectodomain [3] it was 479000 M⁻¹ s⁻¹; with mouse BACE1 [4], 251000 M⁻¹ s⁻¹; with human BACE1 ectodomain [5], 397000 M⁻¹ s⁻¹. The “IC50, FRET assay dose-response” value in experiment [2] was 1200 nM.

B2: NANOBODY B9 (Nb_B9) (VHH)
VHH: DVQLQESGGGSVQAGGSLRLSCAASEYTYGYCSMGWYRQAPGKERELVSTITSDGSTSYVDSVKGRFTISQDNAKNTVYLQMNSLKPEDTAKYYCYTKTCANKLGAKFISWGQGTQVTVSS
notes: dromedary VHH; his-tagged from E. coli; HA-tagged periplasmic extract in the ELISA screen; also called VHH B9; not shown: C-terminal his6-tag (pHEN6)
In the case of B2, the Kd in the experiment with mouse BACE1 [1] came to 1.77 nM; in the experiment with human BACE1 ectodomain [3], 3.67 nM; with mouse BACE1 [4], 1.11 nM; in the experiment with human BACE1 ectodomain [5], 1.96 nM. Further, the koff worked out at 0.00089 s⁻¹ with mouse BACE1 [1], 0.00098 s⁻¹ with human BACE1 ectodomain [3], 0.00118 s⁻¹ in the experiment with mouse BACE1 [4] and 0.0013 s⁻¹ with human BACE1 ectodomain [5]. Also, the kon with mouse BACE1 [1] was found to be 502000 M⁻¹ s⁻¹; in the experiment with human BACE1 ectodomain [3] it was 267000 M⁻¹ s⁻¹; with mouse BACE1 [4] it was 1.06e+06 M⁻¹ s⁻¹; in the experiment with human BACE1 ectodomain [5] it was 662000 M⁻¹ s⁻¹. Also, the “IC50 (CTFβ level) in the neuron assay” value in experiment [6] was roughly 500 nM. Further, the “EC50, FRET assay dose-response” value in experiment [2] stood at 4.1 nM.

B3: NANOBODY 10C4 (Nb_10C4) (VHH)
VHH: QVQLQESGGGSVQAGGFLRLSCAASGYTYSTCSMAWYRQAPGKERELVSSIRNDGSTAYADSVKGRFTISQDNAKNTVYLQMNSLKPEDTAMYYCNIRIGVGPGGTCSIYAPYWGEGTQVTVSS
notes: from the dromedary libraries; purified from pHEN6; not shown: C-terminal his6-tag (pHEN6)
With B3, the Kd with mouse BACE1 [1] was 41.9 nM; with human BACE1 ectodomain [3], 74.7 nM; with mouse BACE1 [4], 10 nM; with human BACE1 ectodomain [5] it was 27.7 nM. In addition, the koff with mouse BACE1 [1] was 0.00797 s⁻¹; with human BACE1 ectodomain [3] it was 0.00792 s⁻¹; with mouse BACE1 [4] it was 0.00988 s⁻¹; in the experiment with human BACE1 ectodomain [5], 0.0125 s⁻¹. For the same molecule, the kon with mouse BACE1 [1] is 190000 M⁻¹ s⁻¹; with human BACE1 ectodomain [3], 106000 M⁻¹ s⁻¹; with mouse BACE1 [4], 984000 M⁻¹ s⁻¹; in the experiment with human BACE1 ectodomain [5] it was 451000 M⁻¹ s⁻¹. For the same molecule, the “IC50, FRET assay dose-response” value in experiment [2] amounted to 150 nM.

Usually Kd stands for the concentration at which binding is half-saturated. High values mean a looser complex, low ones a tighter complex. The term koff denotes a measure of how fast the partners let go of each other. The low end stands for a long-lived complex, the high end for a short-lived complex. One may read the kon as the rate constant with which the complex forms. Read a low kon as slower complex formation.
